Laboratory results from paper PMC13245411.

Tests used:
Test in all cases: co-IP (anti-FLAG) in HEK293T cells, band intensity quantified
Conditions in all cases: parent: est. 1.0; read off a plot
human HA-tagged M1AP = human HA-tagged M1AP (UniProt Q8TC57)
human HA-tagged REDIC1 = human HA-tagged REDIC1 (UniProt Q86WS4)
mouse HA-tagged REDIC1 = mouse HA-tagged REDIC1 (UniProt A0A087WRU1)
mouse HA-tagged M1AP = mouse HA-tagged M1AP (UniProt Q9Z0E1)
UniProt Q9Z0E1, sequence (Q9Z0E1 whole entry): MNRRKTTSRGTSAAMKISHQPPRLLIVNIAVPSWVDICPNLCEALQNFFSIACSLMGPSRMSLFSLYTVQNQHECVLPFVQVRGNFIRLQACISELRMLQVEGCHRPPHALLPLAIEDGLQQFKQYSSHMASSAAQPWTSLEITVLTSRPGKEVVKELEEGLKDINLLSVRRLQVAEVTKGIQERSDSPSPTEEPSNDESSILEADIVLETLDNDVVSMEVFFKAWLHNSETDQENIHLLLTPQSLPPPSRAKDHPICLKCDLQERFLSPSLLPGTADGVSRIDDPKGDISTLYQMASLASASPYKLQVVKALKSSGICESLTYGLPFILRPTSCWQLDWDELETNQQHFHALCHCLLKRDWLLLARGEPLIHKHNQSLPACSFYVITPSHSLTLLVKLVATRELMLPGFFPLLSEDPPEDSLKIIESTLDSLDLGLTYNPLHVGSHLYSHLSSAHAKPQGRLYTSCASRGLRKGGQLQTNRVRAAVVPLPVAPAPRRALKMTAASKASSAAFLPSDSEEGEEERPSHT

UniProt Q86WS4, sequence (Q86WS4 whole entry): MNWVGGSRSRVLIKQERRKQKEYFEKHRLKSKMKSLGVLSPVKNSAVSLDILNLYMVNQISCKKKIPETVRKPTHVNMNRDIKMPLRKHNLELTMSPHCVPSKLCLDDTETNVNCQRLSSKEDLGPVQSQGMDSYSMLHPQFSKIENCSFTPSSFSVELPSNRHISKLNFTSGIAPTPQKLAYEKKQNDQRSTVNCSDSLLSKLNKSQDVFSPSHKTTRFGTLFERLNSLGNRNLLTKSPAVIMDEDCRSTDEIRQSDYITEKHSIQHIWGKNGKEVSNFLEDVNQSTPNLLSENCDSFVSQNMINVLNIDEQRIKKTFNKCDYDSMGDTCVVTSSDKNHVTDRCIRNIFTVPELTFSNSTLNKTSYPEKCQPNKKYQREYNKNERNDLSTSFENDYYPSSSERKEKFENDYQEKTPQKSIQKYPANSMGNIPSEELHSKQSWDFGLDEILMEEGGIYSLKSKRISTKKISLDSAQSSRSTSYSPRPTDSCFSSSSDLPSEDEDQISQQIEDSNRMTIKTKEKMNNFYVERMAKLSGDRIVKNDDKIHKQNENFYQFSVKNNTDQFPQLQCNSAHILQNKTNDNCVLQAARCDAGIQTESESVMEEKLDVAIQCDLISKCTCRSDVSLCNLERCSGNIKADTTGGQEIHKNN
UniProt Q8TC57, sequence (Q8TC57 whole entry): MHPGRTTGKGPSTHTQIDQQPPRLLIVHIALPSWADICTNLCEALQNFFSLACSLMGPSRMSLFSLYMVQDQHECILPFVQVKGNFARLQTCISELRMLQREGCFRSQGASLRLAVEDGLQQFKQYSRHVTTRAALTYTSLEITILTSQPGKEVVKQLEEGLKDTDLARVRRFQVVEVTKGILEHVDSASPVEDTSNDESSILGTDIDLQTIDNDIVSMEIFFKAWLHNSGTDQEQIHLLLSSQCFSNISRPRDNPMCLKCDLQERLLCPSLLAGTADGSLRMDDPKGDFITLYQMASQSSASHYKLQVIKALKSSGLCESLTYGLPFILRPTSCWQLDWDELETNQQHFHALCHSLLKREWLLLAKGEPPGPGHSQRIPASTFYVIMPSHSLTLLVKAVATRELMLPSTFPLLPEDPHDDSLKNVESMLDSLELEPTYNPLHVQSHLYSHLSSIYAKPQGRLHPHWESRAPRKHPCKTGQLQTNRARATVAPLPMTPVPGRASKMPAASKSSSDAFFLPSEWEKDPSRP
UniProt A0A087WRU1, sequence (A0A087WRU1 whole entry): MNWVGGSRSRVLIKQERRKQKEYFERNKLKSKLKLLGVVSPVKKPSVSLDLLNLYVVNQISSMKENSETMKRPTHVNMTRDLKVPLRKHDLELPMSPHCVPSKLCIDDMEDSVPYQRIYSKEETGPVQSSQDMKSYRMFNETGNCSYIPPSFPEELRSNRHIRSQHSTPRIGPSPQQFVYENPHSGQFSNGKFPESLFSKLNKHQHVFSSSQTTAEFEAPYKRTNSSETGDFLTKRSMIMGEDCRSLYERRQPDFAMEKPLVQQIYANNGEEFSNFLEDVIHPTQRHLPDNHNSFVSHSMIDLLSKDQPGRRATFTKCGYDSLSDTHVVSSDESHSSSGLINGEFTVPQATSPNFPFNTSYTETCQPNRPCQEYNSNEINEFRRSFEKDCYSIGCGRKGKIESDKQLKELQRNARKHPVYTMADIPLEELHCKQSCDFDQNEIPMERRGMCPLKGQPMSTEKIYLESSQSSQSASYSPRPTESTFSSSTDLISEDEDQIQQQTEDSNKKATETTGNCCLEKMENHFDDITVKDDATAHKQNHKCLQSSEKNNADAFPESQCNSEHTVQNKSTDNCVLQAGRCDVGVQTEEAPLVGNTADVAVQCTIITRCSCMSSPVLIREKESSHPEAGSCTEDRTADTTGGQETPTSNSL

Substance | ratio to parent (human HA-tagged M1AP) | ratio to parent (human HA-tagged REDIC1) | ratio to parent (mouse HA-tagged REDIC1) | ratio to parent (mouse HA-tagged M1AP)
human SHOC1-XPF (WT, FLAG-tagged) Q590R | 0.44 | 1 | – | –
mouse SHOC1-XPF (WT, FLAG-tagged) Q646R | – | – | 1.1 | 0.5
